Laboratory results reported in the RNAGym collection of RNA variant scans (doi:10.1073/pnas.2313332121).
Fewer inactive variants are shown than the library holds.

B1: TPR 5TU (parent)
chain: GGAUCUUCUCGAUCUAACAAAAAAGACAAAUCUGCCACAAAGCUUGAGAGCAUCUUCGGAUGCAGAGGCGGCAGCCUUCGGUGGCGCGAUAGCGCCAACGUUCUCAACUAUGACACGCAAAACGCGUGCUCCGUUGAAUGGAGUUUAUCAUG

Variants of: B1
Test: polymerase ribozyme fitness, log enrichment relative to wild type (log ratio); higher = more active; in vitro selection for triplet polymerase activity
Summary of the method: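 Mutant libraries were PCR-built and transcribed for each subunit of a heterodimeric triplet polymerase ribozyme and selected for one round in triplicate at −7 °C, frozen, before gel excision of extended constructs and streptavidin-bead capture. Input and output libraries were Illumina-sequenced, keeping genotypes with ≥10 input reads and ≥1 read per output. Fitness is a logarithmic ratio of genotype to wild-type enrichment, in base 2, using inverse-variance-weighted replicate averages.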

Variant | polymerase ribozyme fitness (log ratio)
A3C C76U C96A | -0.525
A3G A19U U55C G84A | -0.956
A3C C93A A98U | -1.79
A3G U4A C54U U102G C125G | -3.99
A3G A19C G92A A98G | -3.18
A3G C87U C132G | -4.07
A3C C8G C76U C87A A106U | ≤ -4.2
A3U A30U G86U C87U | ≤ -4.2
A3U C18A A22U A37G C85U | -3.29
A3G U13A U56A C96A A138G | ≤ -4.2
A3C U101G C105U A138C | -4.17
A3G A20U C27G G42A U56A U77G G86A G117U G133C | ≤ -4.2
A3C C85U | -1.46
A3C A49C C96A | ≤ -4.2
A3G G50C A120G C129A | ≤ -4.2
A3U A22G C43U G68A U78G G92A A107U A110G A113G U151C | ≤ -4.2
A3G C27U C51A G59A C85U G88A A115U G141A | ≤ -4.2
A3U C36U G67U C95A | ≤ -4.2
A3U A20C G58C A73U G81A A147C | ≤ -4.2
A3U A17U U56A G83U C93G C96G C125G G136C | ≤ -4.2
A3C C10A G11U U55A G81C C85U G128A | ≤ -4.2

Variant | polymerase ribozyme fitness (log ratio)
A3G G94U C103U U127C U134C G136A | -3.9
A3G A73U A121U | -0.51
A3C C10G A29U U33G C38U C63U | ≤ -4.2
A3C A30U C93U A115G | ≤ -4.2
A3G G86A | -1.52
A3C G34A C96G | -3.63
A3U A60G G70C G80C G86A U135G U144A | ≤ -4.2
A3C C8U U61G G71C G80C C93A C125G U127C U145C G152U | ≤ -4.2
A3C U4A A121G G141A A142C | -4.03
A3C C85U G141C | -2.07
A3G A89G C93U A137C A138U G140A | ≤ -4.2
A3G C43U A60C G84A U130A | ≤ -4.2
A3C G58C C95G C129A A142C | ≤ -4.2
A3G U15A U90C G94U G124A C125U | ≤ -4.2
A3G U31G G50A C95G C118G A138C U146A G152U | ≤ -4.2
A3C G70C C87G C96G A107G U146G | ≤ -4.2
A3U C36U C95U | -3.09
A3G C14G U61G G71A G86C A91C C105G C114G G143A U145A | ≤ -4.2
A3G A22C U45C A66C G67C C93U A113U | ≤ -4.2
A3C U7A G84U U144G | -2.38
A3U C8A U13G U90A C93A A107G G143C | ≤ -4.2

Variant | polymerase ribozyme fitness (log ratio)
A3G C14U G42C G59A C96U A122U U146C | ≤ -4.2
A3G C14G A147U | -2.9
A3C A17U A26U C54A C75U C93U C103G G143C | ≤ -4.2
A3G C8A U44A A47C U56A G84C C87G | ≤ -4.2
A3C A23U U44A U45C C95U C105G A106C C123U A137G | ≤ -4.2
A3C A22U C85G | -2.18
A3G C18U U56G G94A A110U A138U U139A | ≤ -4.2
A3G G50C C76A A115U C131G | ≤ -4.2
A3G G83A G86U C118U | -3.29
A3G C14G U55A U56A C85U | -4.18
A3C A16G C99G U102G A106U | ≤ -4.2
A3G U7G G46A A47U C51U G94C C125U G143A | ≤ -4.2
A3C C43U U53A U61G U101G U139A | ≤ -4.2
A3G C14U G34A G48A C85A G126U G136A U144G | ≤ -4.2
A3C A16C G48A C96G | -3.42
A3C U4A | 0.257
A3G U7G C38U A40G C54G C95U U145A | ≤ -4.2
A3G G11A C32U C85G C87A G124U | ≤ -4.2
A3U C8A A17G U56A G59A C85A A120G | ≤ -4.2
A3G C5G U15C G84U C108U A121U | ≤ -4.2
A3U A23C | -3.76

Variant | polymerase ribozyme fitness (log ratio)
A3U A20U A41G A49G A64U C108G | ≤ -4.2
A3C C43U A89U G92A C125G | ≤ -4.2
A3U C8U C27A A28C C51A A52C C54A C93U C103G C108G A115C C118A U135A A142U | ≤ -4.2
A3U A24G C32G | -4.15
A3C G86A C125U | -2.79
A3U A12G A22C A37U A47G A97G | -3.5
A3G A41U A47G U101G G136U | ≤ -4.2
A3G C27U U55A U90C G94U C114G C116A | ≤ -4.2
A3C C63G C118U | -0.545
A3U A47C C105U A120C G124A | -1.78
A3C U9A A30U G48A U53A C54U G67U C93G G126A U135G | ≤ -4.2
A3U C5G C18U U31A C76U G94U | -1.46
A3G A60C C93U U145G | -2.53
A3U A22C U31C U61A | -2.45
A3G C116U G124A A142G | -2.6
A3U C14U A40U A52U G84A G112C | ≤ -4.2
A3G C32G C35U A49C G50C C85A C103U C118G | ≤ -4.2
A3C C18U A49U G62C A66C G67U C96A C99G U134C U145C A147C U151G | ≤ -4.2
A3C U7G C14U A52G | -3.28
A3C A16G | -1.12
A3U C35A C43A A52G G88A C108G | ≤ -4.2
